# Test results taken from US20220111042A1, “MANF as a Regulator of Immune System Function” (University of Massachusetts, priority 2014, published 2022).
# Where two headings read alike, the source gives them in different places.
# B1: MANF: mesencephalic astrocyte-derived neurotrophic factor, an 18 kDa secreted protein; form used in the tests not stated (protein, UniProt P55145 25-182, looked up)
# Mesencephalic …: LRPGDCEVCISYLGRFYQDLKDRDVTFSPATIENELIKFCREARGKENRLCYYIGATDDAATKIINEVSKPLAHHIPVEKICEKLKKKDSQICELKYDKQIDLSTVDLKKLRVKELKKILDDWGETCKGCAEKSDYIRKINELMPKYAPKAASARTDL
# Experiments:
# [1] = tested on: DO 11.10 cells; experiment: Dexamethasone dose-response for cell death of DO 11.10 cells; type: cell-based; details: dose-response curve
# Experimental: FIGS. 10A-B provides an analysis of MANF's ability to protect DO 11.10 cells from cell death caused by the glucocorticoid dexamethasone. […] DO 11.10 cells were pretreated for 24 hrs with MANF (dose shown; B) and then challenged with 100 nM dexamethasone to induce cell death. *p=0.003; **p=0.019.
# (§1) Because MANF is expressed in T cells and is induced when they become activated, experiments were performed to determine whether MANF confers protection to these cells. A dose-response curve was generated with the glucocorticoid dexamethasone to determine the dose that results in ˜50% cell death (24 nM) (FIG. 10A). DO 11.10 cells were then pretreated for 24 hours with 0, 10 ng/mL, 100 ng/mL, 1 μg/mL, 10 μg/mL, or 50 μg/mL MANF before exposure to 100 nM dexamethasone to investigate a protective effect for MANF. […] These are key functional data.
# [2] = tested on: MANF expression; details: immortalized B cells from 60 human individuals, tunicamycin to induce ER stress vs untreated; cited from earlier work
# [3] = tested on: MANF expression; details: male C57BL/6 B cells, B cell activation (CD40 at 65 nM); cited from earlier work
# [4] = tested on: DO 11.10 cells; experiment: Ara-C dose-response for cell death of DO 11.10 cells; type: cell-based; details: dose-response curve
# [5] = tested on: MANF expression; details: mouse splenocytes treated with cyclophosphamide; cited from earlier work
# [6] = tested on: KLH-specific IgM; experiment: KLH-specific IgM ELISA after injection of mice with TNP-KLH/alum with MANF or PBS; type: in vivo; details: 8 week old male mice, i.p. 100 μg TNP-KLH with 5% alum plus 200 μL of 1 μg/μL MANF vs PBS; blood seven days later; p=0.0013
# Experimental: FIG. 5 provides an ELISA analysis of anti-KLH specific IgM titers between mice injected with 2,4,6, Trinitrophenyl hapten conjugated Keyhole Limpet Hemocyanin (TNP-KLH) and either 200 μL of 1 μg/μL MANF (KLH-MANF; right) or phosphate buffered saline (KLH-PBS; left). P=0.0013, Student's t-test.
# Based on the expression in the non-germinal cells within the lymph nodes it was speculated that MANF might enhance antibody production and provide for faster and/or higher titers of antibodies following exposure to a novel antigen. To test this hypothesis, 8 week old male mice were injected intraperitoneally with 100 μg of sterile TNP-KLH (2,4,6, Trinitrophenyl hapten conjugated Keyhole Limpet Hemocyanin) with 5% alum in the presence of 200 μL of 1 μg/μL MANF or an equal volume of PBS. Blood was sampled via the submandibular vein seven days later and the KLH-specific IgM analyzed using an enzyme linked immunoassays (ELISA) from Life Diagnostics, Inc. The concentration was calculated from a standard curve. A Student's t-test was used to establish statistical significance (p=0.0013).
# [7] = tested on: DO 11.10 cells; experiment: MANF pretreatment protecting DO 11.10 cells from dexamethasone induced cell death; type: cell-based; details: 24 hours pretreatment, then 100 nM dexamethasone
# Experimental: FIGS. 10A-B provides an analysis of MANF's ability to protect DO 11.10 cells from cell death caused by the glucocorticoid dexamethasone. […]. DO 11.10 cells were pretreated for 24 hrs with MANF (dose shown; B) and then challenged with 100 nM dexamethasone to induce cell death. *p=0.003; **p=0.019.
# as §1
# [8] = tested on: DO 11.10 cells; experiment: MANF pretreatment protecting DO 11.10 cells from Ara-C induced cell death; type: cell-based; details: 1, 10, 100 ng/mL MANF, 24 hours pretreatment, then 10 μM Ara-C
# Description: FIGS. 11A-B provide an analysis of MANF's ability to protect DO 11.10 cells from cell death caused by the DNA damaging chemotherapeutic drug cytosine arabinoside (Ara-C). […].
# [9] = tested on: midbrain dopaminergic neurons; details: primary nigral neuron cell cultures; cited from earlier work
# [10] = tested on: dopaminergic neurons; details: cited from earlier work
# [11] = injection of MANF into 6-OHDA treated rat brains
molecule,measurement,setting,value
C[C@@H]1C[C@H]2[C@@H]3CCC4=CC(=O)C=C[C@]4(C)[C@@]3(F)[C@@H](O)C[C@]2(C)[C@@]1(O)C(=O)CO [dexamethasone],LD50 (dose that results in ~50% cell death),[1],24 nM
tunicamycin,MANF expression,[2],higher levels of MANF expression
B-cell activating factor: ligand used for B cell activation in ligand screen,MANF expression,[3],"dramatic, but transient, repression"
"Nc1ccn([C@@H]2O[C@H](CO)[C@@H](O)[C@@H]2O)c(=O)n1 [Ara-C, cytosine arabinoside]",LD50 (dose that results in 50% cell death),[4],~5 µM
O=P1(N(CCCl)CCCl)NCCCO1 (centres unmarked) [cyclophosphamide],MANF expression,[5],highly induced
B1,levels of anti-KLH IgM antibodies,[6],significantly increased
same,protection against dexamethasone induced cell death,"[7]; 10 ng/mL MANF, p=0.003","statistically significant, does-dependent protection"
same,protection against dexamethasone induced cell death,"[7]; 100 ng/mL MANF, p=0.019","statistically significant, does-dependent protection"
same,protection against dexamethasone induced cell death,"[7]; higher doses of MANF (1, 10, 50 μg/mL)",No statistically significant effects
same,protection against Ara-C induced cell death,[8],dose-dependent protection
same,protection of dopaminergic neurons from death,[9],protected these midbrain dopaminergic neurons from death
same,behavioral symptoms associated with the disorder,[10]; [11],reduced the behavioral symptoms
same,loss of dopaminergic neurons,[10]; [11],statistically significant reduction
same,dopaminergic neuron survival and motor defects,[10]; up to 4 weeks after 6-OHDA treatment,improve dopaminergic neuron survival and correct motor defects
